For four substances, Kd and fold more potent than to CBX7 results are on record in article doi:10.1101/820647.

pKd: −log10 of the molar value.

Holding throughout (test): ITC
A general note: In ITC the heat of successive injections is recorded.

The target in assay [1] is CDY1 chromodomain (aa 2-63) (human) (UniProt Q9Y6F8).
Assay [2] concerns the target CDYL1b chromodomain (aa 1-66) (human) (UniProt Q9Y232).
Assay [3] deals with CDYL2 chromodomain (aa 2-62 or 2-64) (human) (UniProt Q8N8U2).
UniProt Q8N8U2, sequence (Q8N8U2 2-64): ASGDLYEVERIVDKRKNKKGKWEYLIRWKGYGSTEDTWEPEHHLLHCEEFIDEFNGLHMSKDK

UniProt Q9Y6F8, sequence (Q9Y6F8 2-63): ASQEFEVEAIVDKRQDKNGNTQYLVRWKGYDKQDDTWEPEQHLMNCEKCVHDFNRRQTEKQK

As usually defined, the pKd is the negative decadic logarithm of the Kd, by convention in mol/L. Low values mean a high Kd, high ones a low Kd. Substance H3K9me3 peptide gave a pKd in assay [1] of 6.30.
In assay [1], H3K27me3 peptide (canonical histone H3) showed a pKd of 4.03.
“H3tK27me3 peptide (testis-specific histone H3t)” gave a pKd in assay [1] of 4.49.
Regarding UNC4850 (peptide), the fold more potent than to CBX7 in assay [2] and in assay [3] was 10 fold throughout.
